Positions count from the first letter of the chain named. Each block holds one molecule with its values, some of them ahead of it.
Key:
[1] = biological target: human HHLA2 over-expressed on 300.19 mouse pre-B leukemic cells (human) (UniProt Q9UM44); experiment: flow cytometry; 15 ug/ml antibody on 300.19-human HHLA2 cells, PE-conjugated anti-human secondary antibody
[2] = biological target: human HHLA2 over-expressed on 300.19 mouse pre-B leukemic cells (human) (UniProt Q9UM44); experiment: flow cytometry; TMIGD2-Fc binding to 300.19 HHLA2 cells with 10 ug/mL control IgG, against antigen only
[3] = biological target: human HHLA2 over-expressed on 300.19 mouse pre-B leukemic cells (human) (UniProt Q9UM44); experiment: flow cytometry; 10 ug/mL control IgG with 4 ug/mL biotinylated human TMIGD2-Fc, added to 300.19 HHLA2 cells
[4] = biological target: T1, biotinylated human HHLA2-Fc (human, UniProt Q9UM44 23-344, limits assumed, biotinylated (sites not given)); experiment: flow cytometry blocking assay; 10 ug/mL control IgG with 4 ug/mL biotinylated human HHLA2-Fc, added to 300.19 KIR3DL3 cells
T1 construct: It may be the same protein as m8 with biotin added; not shown: Fc part
T1 sequence (looked up): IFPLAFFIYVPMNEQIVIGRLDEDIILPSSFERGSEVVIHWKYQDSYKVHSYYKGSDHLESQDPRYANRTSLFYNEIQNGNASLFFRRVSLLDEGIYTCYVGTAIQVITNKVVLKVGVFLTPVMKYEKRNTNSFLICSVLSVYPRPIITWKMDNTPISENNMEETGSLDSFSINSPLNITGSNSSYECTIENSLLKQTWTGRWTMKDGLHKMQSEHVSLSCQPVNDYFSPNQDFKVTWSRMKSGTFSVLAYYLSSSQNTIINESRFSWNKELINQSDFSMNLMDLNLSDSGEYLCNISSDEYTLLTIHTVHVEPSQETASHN

[5] = biological target: T1, biotinylated human HHLA2-Fc; experiment: flow cytometry blocking assay; HHLA2-Fc binding to 300.19 KIR3DL3 cells with 10 ug/mL control IgG, against antigen only
[6] = biological target: T1, biotinylated human HHLA2-Fc; experiment: flow cytometry blocking assay, antibody titration: binding of human HHLA2-Fc to 300.19 cells over-expressing human KIR3DL3 (blocked partner), gMFI (anti-SA-APC)
recombinant HHLA2-His = biological target: T2, recombinant HHLA2-His (UniProt Q9UM44 23-344, limits assumed); experiment: SPR (Biacore, Cytiva); antibody captured on CM5 chip, HHLA2-His as analyte; monovalent
T2 construct: Analyte in the Biacore assay; also called HHLA2-His analyte; not shown: His tag
T2 sequence (looked up): T1 sequence (looked up)
Experimental: Monovalent affinity was determined by capturing each antibody on an CM5 chip, followed by various concentrations of the HHLA2-His analyte.

[7] = biological target: human HHLA2 over-expressed on 300.19 mouse pre-B leukemic cells (human) (UniProt Q9UM44); experiment: flow cytometry on 300.19 cells over-expressing human HHLA2, antibody titration, gMFI (aHu-APC)
Target sequence in this assay (Q9UM44 23-414): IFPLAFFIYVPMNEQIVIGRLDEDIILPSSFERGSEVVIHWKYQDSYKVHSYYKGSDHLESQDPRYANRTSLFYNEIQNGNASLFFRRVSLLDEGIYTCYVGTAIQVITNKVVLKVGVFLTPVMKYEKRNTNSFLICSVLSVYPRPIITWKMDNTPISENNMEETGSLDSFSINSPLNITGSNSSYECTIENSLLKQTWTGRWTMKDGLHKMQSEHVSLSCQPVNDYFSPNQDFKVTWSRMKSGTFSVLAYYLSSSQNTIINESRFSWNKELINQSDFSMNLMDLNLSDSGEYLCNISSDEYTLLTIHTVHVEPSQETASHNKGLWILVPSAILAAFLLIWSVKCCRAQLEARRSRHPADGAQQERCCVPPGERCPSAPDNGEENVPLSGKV

[8] = biological target: human HHLA2 over-expressed on 300.19 mouse pre-B leukemic cells (human) (UniProt Q9UM44); experiment: flow cytometry, antibody titration: binding of human TMIGD2-Fc (enhanced ligand) to 300.19 cells over-expressing human HHLA2, % TMIGD2-Fc binding normalized to isotype
[9] = biological target: human HHLA2 over-expressed on 300.19 mouse pre-B leukemic cells (human) (UniProt Q9UM44); experiment: flow cytometry; 10 ug/mL IgG with 4 ug/mL biotinylated human TMIGD2-Fc, added to 300.19 HHLA2 cells; streptavidin-Alexa Fluor 633; binding is enhanced
recombinant HHLA2-Fc = biological target: T3, recombinant HHLA2-Fc (UniProt Q9UM44 23-344, limits assumed); experiment: BLI (Octet, ForteBio); IgG captured on AHC sensor, 100 nM HHLA2-Fc in solution; avid
T3 construct: Antigen in solution in the Octet assay; also called HHLA2-Fc antigen; not shown: Fc part
T3 sequence (looked up): T1 sequence (looked up)
Excerpt: The avid affinity of the anti-HHLA2 antibodies for recombinant HHLA2-Fc was investigated. The Octet system from ForteBio was used to measure avid affinity of the anti-HHLA2 antibodies for recombinant HHLA2-Fc.

[10] = biological target: human HHLA2 over-expressed on 300.19 mouse pre-B leukemic cells (human) (UniProt Q9UM44); experiment: flow cytometry; TMIGD2-Fc binding to 300.19 HHLA2 cells with 10 ug/mL IgG, against antigen only; binding is enhanced
[11] = biological target: T1, biotinylated human HHLA2-Fc; experiment: flow cytometry blocking assay; HHLA2-Fc binding to 300.19 KIR3DL3 cells with 10 ug/mL IgG, against antigen only
Experimental: The ability of the anti-HHLA2 antibodies to block binding of HHLA2 to KIR3DL3 and enhance binding of HHLA2 to TMIGD2 was investigated. […] Alexa Fluor 633 conjugated streptavidin was added as a secondary detection reagent.

B2: Ab-65886 (antibody, human IgG1, kappa, V domains shown)
VH: QVQLVQSGAEVKKPGASVKVSCKASGYTFEKYAMHWVRQAPGQRLEWMGFIPAGTGNTKYSQKFQGRVTITRDTSASTAYMELSSLRSEDTAVYYCARDRGGYYYDSWDDWGQGTLVTVSS
VL: DIQMTQSPSSLSASVGDRVTITCRASQSISSYLNWYQQKPGKAPKLLIYGASSLQSGVPSRFSGSGSGTDFTLTISSLQPEDFATYYCQQVAFTPPTFGGGTKVEIKR
notes: tested as IgG
- IC50 (read off the curve) [6]: ~1 µg/mL
- Kd (recombinant HHLA2-His): 11.3 nM
- koff (recombinant HHLA2-His): 0.00688 s⁻¹
- kon (recombinant HHLA2-His): 609000 M⁻¹ s⁻¹
- EC50 (read off the curve) [7]: 0.1 µg/mL

B4: Ab-65885 (antibody, human IgG1, kappa, V domains shown)
VH: B2 VH with E30D, K31S, A33K, F50Y
VL: B2 VL
notes: tested as IgG
- IC50 (read off the curve) [6]: ~1 µg/mL
- Kd (recombinant HHLA2-His): 5.82 nM
- koff (recombinant HHLA2-His): 0.00205 s⁻¹
- kon (recombinant HHLA2-His): 325000 M⁻¹ s⁻¹
- EC50 (read off the curve) [7]: 0.1 µg/mL

B6: Ab-60638 (antibody, human IgG4 S228P, kappa, V domains shown)
VH: QVQLVQSGAEVKKPGASVKVSCKASGYTFTSYAMHWVRQAPGQRLEWMGWINAGTGNTKYSQKFQGRVTITRDTSASTAYMELSSLRSEDTAVYYCARDLPHRGAFDPWGQGTLVTVSS
VL: EIVLTQSPGTLSLSPGERATLSCRASQSVSSDYLAWYQQKPGQAPRLLIYGASSRATGIPDRFSGSGSGTDFTLTISRLEPEDFAVYYCQLYGSAPRTFGGGTKVEIKR
notes: tested as IgG
- 300.19-human HHLA2 cells FOB (fold over background) (fold over background) [1]: 394
- 300.19-human HHLA2 cells MFI [1]: 46900 MFI
- Human TMIGD2-Fc Binding MFI for 300.19 HHLA2 cells [9]: 2730 MFI
- Kd (recombinant HHLA2-Fc): 1.42 nM
- koff (recombinant HHLA2-Fc): 0.000469 s⁻¹
- kon (recombinant HHLA2-Fc): 330000 M⁻¹ s⁻¹
- Antigen Binding MFI Ratio (IgG blocked/antigen only) [10]: 4.5
- Antigen Binding MFI Ratio (IgG blocked/antigen only) [11]: 0 ratio

B7: Ab-60665 (antibody, human IgG4 S228P, kappa, V domains shown)
VH: QVQLVQSGAEVKKPGSSVKVSCKASGGTSSNYAISWVRQAPGQGLEWMGGIIPIFGTANYAQKFQGRVTITADESTSTAYMELSSLRSEDTAVYYCARSGTIWHDIWGQGTMVTVSS
VL: EIVLTQSPATLSLSPGERATLSCRASQSVSSYLAWYQQKPGQAPRLLIYDSSNRATGIPARFSGSGSGTDFTLTISSLEPEDFAVYYCQQVVHWPPTFGGGTKVEIKR
notes: tested as IgG
- 300.19-human HHLA2 cells FOB (fold over background) (fold over background) [1]: 820
- 300.19-human HHLA2 cells MFI [1]: 115000 MFI
- Human TMIGD2-Fc Binding MFI for 300.19 HHLA2 cells [9]: 1860 MFI
- Kd (recombinant HHLA2-Fc): 0.971 nM
- koff (recombinant HHLA2-Fc): 0.000189 s⁻¹
- kon (recombinant HHLA2-Fc): 194000 M⁻¹ s⁻¹
- Antigen Binding MFI Ratio (IgG blocked/antigen only) [10]: 3.1
- Antigen Binding MFI Ratio (IgG blocked/antigen only) [11]: 0 ratio

The remaining lines, values ahead:

- 300.19-human HHLA2 cells FOB (fold over background) (fold over background) [1]: 22
- 300.19-human HHLA2 cells MFI [1]: 3290 MFI
- Antigen Binding MFI Ratio (IgG blocked/antigen only) [2]: 1.6
- Human TMIGD2-Fc Binding MFI for 300.19 HHLA2 cells [3]: 943 MFI
- Human HHLA2-Fc Binding MFI for 300.19 KIR3DL3 cells [4]: 6990 MFI
- Antigen Binding MFI Ratio (IgG blocked/antigen only) [5]: 0.9
Molecule: Isotype control (antibody)

- IC50 (read off the curve) [6]: ~1 µg/mL
- Kd (recombinant HHLA2-His): 0.765 nM
- koff (recombinant HHLA2-His): 9.28e-05 s⁻¹
- kon (recombinant HHLA2-His): 123000 M⁻¹ s⁻¹
- EC50 (read off the curve) [7]: 0.1 µg/mL
B1: Ab-65890 (antibody, human IgG1, V domains shown)
VH: B2 VH with E30N, K31S, A33R, F50S, K59V
VL: DIQMTQSPSSLSASVGDRVTITCRASQSISSYLNWYQQKPGKAPKLLIYGASSLQSGVPSRFSGSGSGTDFTLTISSLQPEDFATYYCQQVPFEPPTFGGGTKVEIK
notes: tested as IgG

- IC50 (read off the curve) [6]: ~1 µg/mL
- Kd (recombinant HHLA2-His): 0.894 nM
- koff (recombinant HHLA2-His): 0.000114 s⁻¹
- kon (recombinant HHLA2-His): 128000 M⁻¹ s⁻¹
- EC50 (read off the curve) [8]: 0.1 µg/mL
- EC50 (read off the curve) [7]: 0.1 µg/mL
B3: Ab-65889 (antibody, human IgG1, kappa, V domains shown)
VH: B2 VH with E30A, K31S, A33K, F50D, K59H
VL: B2 VL with A92P, T94E
notes: tested as IgG

- IC50 (read off the curve) [6]: ~1 µg/mL
- Kd (recombinant HHLA2-His): 16.5 nM
- koff (recombinant HHLA2-His): 0.0148 s⁻¹
- kon (recombinant HHLA2-His): 900000 M⁻¹ s⁻¹
- EC50 (read off the curve) [7]: 0.1 µg/mL
B5: Ab-65887 (antibody, human IgG1, kappa, V domains shown)
VH: B2 VH with K31Q, Y104W
VL: B2 VL with A92V
notes: tested as IgG

Reference: patent US20250270323A1 (NEXTPOINT THERAPEUTICS, published 2025)
